Laboratory results taken from patent publication US20020058800A1.

Target: murine 103 gene product, transmembrane form, on the cell surface (murine) (UniProt P14719)
Experiment: flow cytometry; digoxigenin-labelled 3E10 with anti-Dig-PE against CD4-FITC, on CD4+ T cells cultured with IL-4 + anti-IL-12 (TH2 conditions). This is the middle of three panels, between 5.2 % (after primary restimulation) and 41 % (after tertiary restimulation). [C) TH2, middle panel]

Chain of UniProt P14719 (P14719 24-567): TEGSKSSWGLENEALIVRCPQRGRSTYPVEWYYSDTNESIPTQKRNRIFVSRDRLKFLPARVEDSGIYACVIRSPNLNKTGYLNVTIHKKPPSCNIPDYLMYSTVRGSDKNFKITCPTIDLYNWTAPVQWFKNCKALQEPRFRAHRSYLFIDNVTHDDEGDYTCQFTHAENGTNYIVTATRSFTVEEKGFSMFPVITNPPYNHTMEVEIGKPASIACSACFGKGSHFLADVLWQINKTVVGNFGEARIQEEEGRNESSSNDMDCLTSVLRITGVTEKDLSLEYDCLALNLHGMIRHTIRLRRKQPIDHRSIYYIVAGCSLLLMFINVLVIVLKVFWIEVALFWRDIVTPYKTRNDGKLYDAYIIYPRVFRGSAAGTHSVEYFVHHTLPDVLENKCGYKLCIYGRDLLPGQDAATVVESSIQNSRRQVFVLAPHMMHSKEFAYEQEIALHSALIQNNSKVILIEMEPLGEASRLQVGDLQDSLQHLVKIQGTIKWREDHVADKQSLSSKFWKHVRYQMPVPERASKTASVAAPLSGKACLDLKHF

% of cells in the upper right quadrant (3E10+ CD4+): 11.1%
Substance: 3E10 mAb (antibody)
